The target in the data set is T1, GST-pRb (non-acetylated), P06400.
T1 chain: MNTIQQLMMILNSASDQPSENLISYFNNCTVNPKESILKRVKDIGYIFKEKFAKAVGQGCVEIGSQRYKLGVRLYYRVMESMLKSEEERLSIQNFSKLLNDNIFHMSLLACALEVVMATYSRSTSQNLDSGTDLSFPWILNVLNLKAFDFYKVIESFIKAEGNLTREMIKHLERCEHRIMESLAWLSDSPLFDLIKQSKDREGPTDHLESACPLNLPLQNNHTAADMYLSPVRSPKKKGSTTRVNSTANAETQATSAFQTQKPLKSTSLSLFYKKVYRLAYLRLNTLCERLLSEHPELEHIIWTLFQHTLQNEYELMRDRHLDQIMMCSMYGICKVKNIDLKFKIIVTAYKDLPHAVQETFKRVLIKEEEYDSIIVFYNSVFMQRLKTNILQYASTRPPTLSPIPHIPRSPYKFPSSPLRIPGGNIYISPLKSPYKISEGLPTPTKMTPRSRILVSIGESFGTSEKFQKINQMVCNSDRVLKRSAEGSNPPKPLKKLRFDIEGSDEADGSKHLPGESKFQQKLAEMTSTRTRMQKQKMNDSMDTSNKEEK

B1: his-tagged p300 1195-1673 (protein)
chain: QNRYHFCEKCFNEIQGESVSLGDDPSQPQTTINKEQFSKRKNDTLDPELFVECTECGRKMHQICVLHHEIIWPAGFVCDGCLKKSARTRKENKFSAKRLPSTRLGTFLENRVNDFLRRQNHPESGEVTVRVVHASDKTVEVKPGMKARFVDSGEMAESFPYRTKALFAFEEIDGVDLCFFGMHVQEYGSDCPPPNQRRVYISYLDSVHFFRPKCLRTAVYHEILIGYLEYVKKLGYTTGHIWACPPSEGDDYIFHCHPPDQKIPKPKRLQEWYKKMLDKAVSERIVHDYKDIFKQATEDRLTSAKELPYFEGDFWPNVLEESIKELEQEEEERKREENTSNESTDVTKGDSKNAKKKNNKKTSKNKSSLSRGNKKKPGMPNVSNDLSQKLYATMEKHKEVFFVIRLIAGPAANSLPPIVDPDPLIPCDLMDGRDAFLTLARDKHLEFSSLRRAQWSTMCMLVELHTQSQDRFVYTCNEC
Take B1: the “in vitro acetylation of GST-pRb with 14C acetyl CoA” value is “GST-pRb could be acetylated by p300”.

For the origin of these results see patent publication US20040048242.
